# From patent publication US10584169B2, “Anti-CD73 antibodies and uses thereof” (I-MAB BIOPHARMA US LIMITED, dated 2020)
# Residue numbers refer to the chain shown, from its start. Read-outs that look alike come from different tables or passages of the source.
# T1: Recombinant human CD73 protein (human)
# T1 chain: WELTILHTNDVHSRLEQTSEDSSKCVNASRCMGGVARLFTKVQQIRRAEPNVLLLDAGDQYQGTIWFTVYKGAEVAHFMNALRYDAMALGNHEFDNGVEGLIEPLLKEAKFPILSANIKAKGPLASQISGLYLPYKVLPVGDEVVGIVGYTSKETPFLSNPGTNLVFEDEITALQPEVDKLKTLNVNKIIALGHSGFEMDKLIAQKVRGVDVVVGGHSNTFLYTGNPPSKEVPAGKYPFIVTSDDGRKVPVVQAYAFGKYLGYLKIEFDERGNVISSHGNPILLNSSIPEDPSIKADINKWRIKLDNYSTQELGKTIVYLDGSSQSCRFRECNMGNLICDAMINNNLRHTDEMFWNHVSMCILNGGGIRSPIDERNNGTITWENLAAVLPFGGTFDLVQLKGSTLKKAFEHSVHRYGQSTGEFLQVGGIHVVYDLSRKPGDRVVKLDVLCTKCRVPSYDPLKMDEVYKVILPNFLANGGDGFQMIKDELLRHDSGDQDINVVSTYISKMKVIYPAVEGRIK
# T2: Human CD73 on the cell surface (human)
# T2 chain: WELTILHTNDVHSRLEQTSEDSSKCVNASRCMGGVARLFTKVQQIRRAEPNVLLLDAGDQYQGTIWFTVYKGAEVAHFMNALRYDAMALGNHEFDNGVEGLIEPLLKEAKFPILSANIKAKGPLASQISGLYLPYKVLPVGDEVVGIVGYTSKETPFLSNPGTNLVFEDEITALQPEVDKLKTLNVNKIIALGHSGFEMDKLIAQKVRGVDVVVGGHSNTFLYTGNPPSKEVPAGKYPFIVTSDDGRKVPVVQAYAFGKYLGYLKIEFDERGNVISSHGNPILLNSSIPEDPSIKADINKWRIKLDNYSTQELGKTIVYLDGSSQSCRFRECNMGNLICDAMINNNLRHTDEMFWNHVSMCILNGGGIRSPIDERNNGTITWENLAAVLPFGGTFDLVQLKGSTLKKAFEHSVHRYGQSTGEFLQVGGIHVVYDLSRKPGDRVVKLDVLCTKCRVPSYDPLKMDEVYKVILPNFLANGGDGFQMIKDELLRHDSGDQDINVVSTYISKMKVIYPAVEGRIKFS
# B1: 101-Mu (antibody, V domains shown)
# VH: DVQLQESGPGLVKPSQSLSLTCSVTGYSITSGYYWNWIRQFPGNKLEWMGYINYGGSNGYNPSLKSRISITRDTSKNQFFLKLNSVTTEDTATYYCARDYDAYYEALDDWGQGTSVTVSS
# VL: QIVLSQSPAILSASPGEKVTMTCRASSRVNYMHWYQQKPGSSPKPWISATSNLASGVPARFSGSGSGTSYSLTISRVETEDAATYYCQQWSSNPPTFGGGTKLEIK
# B2: 101-Mu chimera (antibody, V domains shown)
# VH: B1 VH
# VL: B1 VL
# B3: Hu101-25 (antibody, V domains shown)
# VH: EVQLQESGPGLVKPSETLSLTCAVSGYSISSGYYWNWIRQPPGKGLEWIGYINYGGSNGYNPSLKSRVTISRDTSKNQFSLKLSSVTAADTAVYYCARDYDAYYEALDDWGQGTTVTVSS
# VL: EIVLSQSPATLSLSPGERATLSCRASSRVNYMHWYQQKPGQSPRPWISATSNLASGVPARFSGSGSGTSYTLTISSLEPEDFAVYYCQQWSSNPPTFGGGTKVEIK
# B4: Hu101-28 (antibody, V domains shown)
# VH: B3 VH with S30T, G45K, I49M, V68I
# VL: B3 VL
# Key:
# [1] = target: T1, Recombinant human CD73 protein
# [2] = target: T2, Human CD73 on the cell surface
# [3] = target: T2, Human CD73 on the cell surface; assay: flow cytometry on SK-OV-3 cells
# [4] = target: T1, Recombinant human CD73 protein; assay: ELISA, plate-coated recombinant human CD73
# [5] = target: T1, Recombinant human CD73 protein; assay: Biacore T200, antibody captured, recombinant human CD73 as analyte, 1:1 model
# Description: FIG. 3 plots the binding kinetics of 101-Mu and mAb1 with recombinant human CD73 (recombinant human CD73 was set as an analyte with serial concentrations (100, 50, 25, 12.5, 6.25, 3.125 nM)). The binding kinetics assay of antibody to antigen was performed using Biacore T200 system through a human antibody capture approach. The […] were immobilized on CM5 sensor chip according to the manufactory's instruction. The test antibody was injected and captured by the immobilized anti-human Fc IgG. And then serial concentrations of the antigen was individually injected, and the binding profile was recorded for each concentration antigen analyte, respectively. The assay system was regenerated by injection of 10 mM Glycine-HCl pH 1.5 for 30 seconds. The running buffer was HBS-EP+ (10 mM HEPES, pH 7.4, 150 mM NaCl, 3 mM EDTA and 0.05% P20). The assay temperature was 25° C., and the association and dissociation time were 180 and 600 seconds, respectively.
# [6] = target: T1, Recombinant human CD73 protein
# [7] = target: T2, Human CD73 on the cell surface
# [8] = target: T2, Human CD73 on the cell surface; assay: flow cytometry on SK-OV-3 cells
# Description: Human ovarian cancer cell line (SK-OV-3 cells) which endogenously expressed human CD73 on the surface were stained with different concentrations of IgG control, chimeric anti-CD73 (101-Mu-Chimeric, or 101-Chi) and humanized anti-CD73 antibodies (Hu101-25 and Hu101-28) at […] for 30 mins. Then, the cells were washed with PBS three times, followed by incubation with APC-labeled anti-human Fc specific antibody (Invitrogen) at 4° C. for 30 mins. Binding was measured using an FACSCanto (Becton-Dickinson), and the results are presented in FIG. 8 (see also the table below).
# [9] = target: T1, Recombinant human CD73 protein; assay: Biacore T200, antibody captured by anti-human Fc IgG, antigen as analyte, 1:1 model
# Description: For the binding assay, the Biacore T200 system was used through human antibody capture approach. The anti-human Fc IgG were immobilized on CM5 sensor chip according to the manufactory's instruction. The test antibody was injected and captured by the immobilized anti-human Fc IgG. And then serial concentrations of antigen was individually injected, and the binding profile was recorded for each concentration antigen analyte, respectively. The assay system was regenerated by injection of 10 mM Glycine-HCl pH 1.5 for 30 seconds. The running buffer was HBS-EP+ (10 mM HEPES, pH 7.4, 150 mM NaCl, 3 mM EDTA and 0.05% P20). The assay temperature was 25° C., and the association and dissociation time were 180 and 600 seconds, respectively.
# [10] = target: T1, Recombinant human CD73 protein
# [11] = target: T2, Human CD73 on the cell surface
# [12] = target: T1, Recombinant human CD73 protein; assay: ELISA with recombinant human CD73 (2 µg/ml)
Binder,"IC50 of inhibition of CD73 enzymatic activity (CellTiter-Glo luminescence, residual CD73 activity) [1] [nM]",IC50 of inhibition of cellular CD73 enzyme activity on SK-OV-3 cells (CellTiter-Glo luminescence) [2] [nM],EC50 [3] [nM],EC50 [4] [nM],Kd [5] [nM],koff [5] [s⁻¹],kon [5] [M⁻¹ s⁻¹],"IC50 (nM), inhibition of recombinant human CD73 enzymatic activity [6] [nM]","Max. Inhibition (%), recombinant human CD73 enzymatic activity [6] [%]","IC50 (nM), inhibition of cellular CD73 enzyme activity on SK-OV-3 cells [7] [nM]","Max. Inhibition (%), cellular CD73 enzyme activity on SK-OV-3 cells [7] [%]",EC50 [8] [nM],Kd [9] [nM],koff [9] [s⁻¹],kon [9] [M⁻¹ s⁻¹],IC50 of inhibition of recombinant human CD73 activity (CellTiter-Glo) [10] [nM],IC50 of inhibition of cell-bound CD73 activity on MDA-MB-231 cells (CellTiter-Glo) [11] [nM],IC50 of inhibition of cell-bound CD73 activity on SK-OV-3 cells (CellTiter-Glo) [11] [nM],EC50 [12] [nM]
B1,3.89,4.62,0.54,0.08,0.421,3.42e-05,81300,,,,,,,,,,,,
B2,,,,,,,,4.25,98,1.82,100,1.35,,,,,,,
B3,,,,,,,,4.72,99,2.98,100,2.38,0.747,5.51e-05,73700,,,,
B4,,,0.67,,,,,9.35,98,2.52,100,1.35,,,,2.84,8.21,2.52,0.0887
